In patent US20210380703A1 (RIGEL PHARMACEUTICALS, published 2021):

Assays:
[1] = biological target: ACVR2A on primary human myotubes (human, UniProt P27037 20-513); test: cell-based or functional assay
Target sequence in this assay (P27037 20-513): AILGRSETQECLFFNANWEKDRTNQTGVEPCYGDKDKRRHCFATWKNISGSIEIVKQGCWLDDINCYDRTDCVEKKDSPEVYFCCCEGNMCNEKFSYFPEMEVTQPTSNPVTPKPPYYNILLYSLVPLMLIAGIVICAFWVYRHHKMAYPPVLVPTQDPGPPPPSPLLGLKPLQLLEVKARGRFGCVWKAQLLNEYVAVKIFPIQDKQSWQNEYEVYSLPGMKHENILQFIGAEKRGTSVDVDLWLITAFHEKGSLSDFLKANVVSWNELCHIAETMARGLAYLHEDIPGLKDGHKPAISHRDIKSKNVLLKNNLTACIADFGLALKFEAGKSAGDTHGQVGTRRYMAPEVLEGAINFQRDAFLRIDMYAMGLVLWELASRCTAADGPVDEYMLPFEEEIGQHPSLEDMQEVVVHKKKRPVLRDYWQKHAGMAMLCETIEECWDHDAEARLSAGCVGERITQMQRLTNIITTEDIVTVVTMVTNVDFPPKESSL

[2] = biological target: ACVR2A on primary human myotubes (human, UniProt P27037 20-513); test: cell-based or functional assay; remark: listed apart in the source
Target sequence in this assay (P27037 20-513): as above

| Binder | Phospho-SMAD3 Human Skeletal Muscle GDF8 [1] | Phospho-SMAD3 Human Skeletal Muscle GDF8 [2] |
| --- | --- | --- |
| 373_F08 (antibody, V domains shown) VH: EVQLLESGGGLVQPGGSLRLSCAASGFTFSSYSMNWVRQAPGKGLEWVSGINYNGGYTSYADSVKGRFTISRDNSKNTLYLQMNSLRAEDTAVYYCARGANWHDTALDYWGQGTLVTVSS VL: DIQMTQSPSSLSASVGDRVTITCRASQSILTYLNWYQQKPGKAPKLLIYAATSRASGVPSRFSGSGSGTDFTLTISSLQPEDFATYYCQQSYDTPLTFGGGTKVEIK | 0.005 |  |
| 369_C12 (antibody, V domains shown) VH: EVQLLESGGGLVQPGGSLRLSCAASGFTFSSYGMNWVRQAPGKGLEWVANINYNGGYKGYADSVKGRFTISRDNSKNTLYLQMNSLRAEDTAVYYCARGATWHDTHLDYWGQGTLVTVSS VL: DIQMTQSPSSLSASVGDRVTITCRASQSILTYLNWYQQKPGKAPKLLIYAATSRHSGVPSRFSGSGSGTDFTLTISSLQPEDFATYYCQQSYDTPLTFGGGTKVEIK | 0.0094 |  |
| 367_A02 (antibody, V domains shown) VH: EVQLLESGGGLVQPGGSLRLSCAASGFTFDSYGMNWVRQAPGKGLEWVSSINYNSGYKGYADSVKGRFTISRDNSKNTLYLQMNSLRAEDTAVYYCARGATWHDTHLDYWGQGTLVTVSS VL: DIQMTQSPSSLSASVGDRVTITCRASQSIISYLNWYQQKPGKAPKLLIYAVTSRASGVPSRFSGSGSGTDFTLTISSLQPEDFATYYCQQSYDTPLTFGGGTKVEIK | 0.159 |  |
| 368_G03 (antibody, V domains shown) VH: EVQLLESGGGLVQPGGSLRLSCAASGFTFSSYSMNWVRQAPGKGLEWVSGINYNSGYTSYADSVKGRFTISRDNSKNTLYLQMNSLRAEDTAVYYCARGATWHDTALDYWGQGTLVTVSS VL: DIQMTQSPSSLSASVGDRVTITCRASQSILSYLNWYQQKPGKAPKLVIYAATSRASGVPSRFSGSGSGTDFTLTISSLQPEDFATYYCQQSYDTPLTFGGGTKVEIK | 0.299 |  |

Second part, the binder after the results:

| Phospho-SMAD3 Human Skeletal Muscle GDF8 [1] | Phospho-SMAD3 Human Skeletal Muscle GDF8 [2] | Binder |
| --- | --- | --- |
|  | 0.0107 | 376_C06 (antibody, V domains shown) VH: EVQLLESGGGLVQPGGSLRLSCAASGFTFSSYGMNWVRQAPGKGLEWVAGINYNGGYTSYADSVKGRFTISRDNSKNTLYLQMNSLRAEDTAVYYCARSATWHDTALDYWGQGTLVTVSS VL: DIQMTQSPSSLSASVGDRVTITCRASQSILSYLNWYQQKPGKAPKLVIYAATSRASGVPSRFSGSGSGTDFTLTISSLQPEDFATYYCQQSYDSPLTFGGGTKVEIK |
|  | 0.0093 | 374_B04 (antibody, V domains shown) VH: EVQLLESGGGLVQPGGSLRLSCAASGFTFSSYSMNWVRQAPGKGLEWVSNINYNSGYTGYADSVKGRFTISRDNSKNTLYLQMNSLRAEDTAVYYCARSANWHDTALDYWGQGTLVTVSS VL: DIQMTQSPSSLSASVGDRVTITCRASQSIVSYLNWYQQKPGKAPKLLIYAVTSRASGVPSRFSGSGSGTDFTLTISSLQPEDFATYYCQQSYESPLTFGGGTKVEIK |
|  | 0.585 | 374_C08 (antibody, V domains shown) VH: EVQLLESGGGLVQPGGSLRLSCAASGFTFDSYGMNWVRQAPGKGLEWVSGINYNSGYKSYADSVKGRFTISRDNSKNTLYLQMNSLRAEDTAVYYCARSATWHDTALDYWGQGTLVTVSS VL: DIQMTQSPSSLSASVGDRVTITCRASQSILSYVNWYQQKPGKAPKLLIYAVTSRASGVPSRFSGSGSGTDFTLTISSLQPEDFATYYCQQSYDSPLTFGGGTKVEIK |
|  | 0.0497 | 374_E05 (antibody, V domains shown) VH: EVQLLESGGGLVQPGGSLRLSCAASGFTFSSYSMNWVRQAPGKGLEWVAGINYNGGYTSYADSVKGRFTISRDNSKNTLYLQMNSLRAEDTAVYYCARSANWHDTALDYWGQGTLVTVSS VL: DIQMTQSPSSLSASVGDRVTITCRASQSILSFVNWYQQKPGKAPKLVIYAATSRASGVPSRFSGSGSGTDFTLTISSLQPEDFATYYCQQSYNLPLTFGGGTKVEIK |
